# Data as given in patent US20210380703A1.
# Biological target: Human Fc (human)
# Assay: ELISA, negative control
row,optical density,Binder
1,0.201 OD,"373_H05 (antibody, V domains shown) VH: EVQLLESGGGLVQPGGSLRLSCAASGFTFSDYSMNWVRQAPGKGLEWVANINYNGGYKGYADSVKGRFTISRDNSKNTLYLQMNSLRAEDTAVYYCARSANWHDTALDYWGQGTLVTVSS VL: DIQMTQSPSSLSASVGDRVTITCRASQSILTYVNWYQQKPGKAPKLVIYAATSRASGVPSRFSGSGSGTDFTLTISSLQPEDFATYYCQQSYETPLTFGGGTKVEIK"
2,0.16 OD,"373_E01 (antibody, V domains shown) VH: EVQLLESGGGLVQPGGSLRLSCAASGFTFSSYGMNWVRQAPGKGLEWVSGINYNGGYKGYADSVKGRFTISRDNSKNTLYLQMNSLRAEDTAVYYCARSANWHDTALDYWGQGTLVTVSS VL: DIQMTQSPSSLSASVGDRVTITCRASQSIVSYVNWYQQKPGKAPKLLIYAATSRHSGVPSRFSGSGSGTDFTLTISSLQPEDFATYYCQQSYNNPLTFGGGTKVEIK"
3,0.206 OD,"374_A07 (antibody, V domains shown) VH: EVQLLESGGGLVQPGGSLRLSCAASGFTFSSYSMNWVRQAPGKGLEWVSGINYNSGYKGYADSVKGRFTISRDNSKNTLYLQMNSLRAEDTAVYYCARSANWHDTALDYWGQGTLVTVSS VL: DIQMTQSPSSLSASVGDRVTITCRASQSILSYVNWYQQKPGKAPKLLIYAVTSRASGVPSRFSGSGSGTDFTLTISSLQPEDFATYYCQQSYDLPLTFGGGTKVEIK"
4,0.2 OD,"373_G10 (antibody, V domains shown) VH: EVQLLESGGGLVQPGGSLRLSCAASGFTFSDYGMNWVRQAPGKGLEWVSNINYNGGYKSYADSVKGRFTISRDNSKNTLYLQMNSLRAEDTAVYYCARSANWHDTALDYWGQGTLVTVSS VL: DIQMTQSPSSLSASVGDRVTITCRASQSIVSYVNWYQQKPGKAPKLLIYAATSRASGVPSRFSGSGSGTDFTLTISSLQPEDFATYYCQQSYDLPLTFGGGTKVEIK"
5,0.176 OD,"373_E05 (antibody, V domains shown) VH: EVQLLESGGGLVQPGGSLRLSCAASGFTFDSYGMNWVRQAPGKGLEWVSNINYNGGYTSYADSVKGRFTISRDNSKNTLYLQMNSLRAEDTAVYYCARSANWHDTALDYWGQGTLVTVSS VL: DIQMTQSPSSLSASVGDRVTITCRASQSILSYVNWYQQKPGKAPKLLIYAVTSRASGVPSRFSGSGSGTDFTLTISSLQPEDFATYYCQQSYDLPLTFGGGTKVEIK"
6,0.189 OD,"373_D10 (antibody, V domains shown) VH: EVQLLESGGGLVQPGGSLRLSCAASGFTFDSYSMNWVRQAPGKGLEWVSNINYNSGYKGYADSVKGRFTISRDNSKNTLYLQMNSLRAEDTAVYYCARSANWHDTALDYWGQGTLVTVSS VL: DIQMTQSPSSLSASVGDRVTITCRASQSILSYVNWYQQKPGKAPKLLIYAATSRASGVPSRFSGSGSGTDFTLTISSLQPEDFATYYCQQSYDLPLTFGGGTKVEIK"
7,0.17 OD,"373_E12 (antibody, V domains shown) VH: EVQLLESGGGLVQPGGSLRLSCAASGFTFSSYSMNWVRQAPGKGLEWVANINYNGGYTGYADSVKGRFTISRDNSKNTLYLQMNSLRAEDTAVYYCARSANWHDTALDYWGQGTLVTVSS VL: DIQMTQSPSSLSASVGDRVTITCRASQSILSYVNWYQQKPGKAPKLVIYAATSRASGVPSRFSGSGSGTDFTLTISSLQPEDFATYYCQQSYDTPLTFGGGTKVEIK"
8,0.174 OD,"373_G12 (antibody, V domains shown) VH: EVQLLESGGGLVQPGGSLRLSCAASGFTFSSYSMNWVRQAPGKGLEWVSNINYNGGYTSYADSVKGRFTISRDNSKNTLYLQMNSLRAEDTAVYYCARSANWHDTALDYWGQGTLVTVSS VL: DIQMTQSPSSLSASVGDRVTITCRASQSILSYLNWYQQKPGKAPKLLIYATTSLASGVPSRFSGSGSGTDFTLTISSLQPEDFATYYCQQSYNSPLTFGGGTKVEIK"
9,0.294 OD,"373_E07 (antibody, V domains shown) VH: EVQLLESGGGLVQPGGSLRLSCAASGFTFSSYGMNWVRQAPGKGLEWVANINYNGGYTSYADSVKGRFTISRDNSKNTLYLQMNSLRAEDTAVYYCARSANWHDTALDYWGQGTLVTVSS VL: DIQMTQSPSSLSASVGDRVTITCRASQSILTYVNWYQQKPGKAPKLLIYAATSLASGVPSRFSGSGSGTDFTLTISSLQPEDFATYYCQQSYETPLTFGGGTKVEIK"
10,0.157 OD,"374_B06 (antibody, V domains shown) VH: EVQLLESGGGLVQPGGSLRLSCAASGFTFDSYSMNWVRQAPGKGLEWVAGINYNSGYKGYADSVKGRFTISRDNSKNTLYLQMNSLRAEDTAVYYCARSANWHDTHLDYWGQGTLVTVSS VL: DIQMTQSPSSLSASVGDRVTITCRASQSILTYVNWYQQKPGKAPKLLIYAATSRASGVPSRFSGSGSGTDFTLTISSLQPEDFATYYCQQSYDTPLTFGGGTKVEIK"
11,0.222 OD,"374_B04 (antibody, V domains shown) VH: EVQLLESGGGLVQPGGSLRLSCAASGFTFSSYSMNWVRQAPGKGLEWVSNINYNSGYTGYADSVKGRFTISRDNSKNTLYLQMNSLRAEDTAVYYCARSANWHDTALDYWGQGTLVTVSS VL: DIQMTQSPSSLSASVGDRVTITCRASQSIVSYLNWYQQKPGKAPKLLIYAVTSRASGVPSRFSGSGSGTDFTLTISSLQPEDFATYYCQQSYESPLTFGGGTKVEIK"
12,0.198 OD,"373_H01 (antibody, V domains shown) VH: EVQLLESGGGLVQPGGSLRLSCAASGFTFDSYSMNWVRQAPGKGLEWVANINYNGGYTGYADSVKGRFTISRDNSKNTLYLQMNSLRAEDTAVYYCARSANWHDTALDYWGQGTLVTVSS VL: DIQMTQSPSSLSASVGDRVTITCRASQSILSYLNWYQQKPGKAPKLVIYAATSRASGVPSRFSGSGSGTDFTLTISSLQPEDFATYYCQQSYDNPLTFGGGTKVEIK"

# The next lines start with the binder.
row,Binder,optical density
1,"373_B06 (antibody, V domains shown) VH: EVQLLESGGGLVQPGGSLRLSCAASGFTFSDYSMNWVRQAPGKGLEWVAGINYNGGYTGYADSVKGRFTISRDNSKNTLYLQMNSLRAEDTAVYYCARSANWHDTALDYWGQGTLVTVSS VL: DIQMTQSPSSLSASVGDRVTITCRASQSILTYVNWYQQKPGKAPKLVIYAATSRHSGVPSRFSGSGSGTDFTLTISSLQPEDFATYYCQQSYESPLTFGGGTKVEIK",0.221 OD
2,"373_C11 (antibody, V domains shown) VH: EVQLLESGGGLVQPGGSLRLSCAASGFTFSSYSMNWVRQAPGKGLEWVSGINYNSGYTGYADSVKGRFTISRDNSKNTLYLQMNSLRAEDTAVYYCARSANWHDTALDYWGQGTLVTVSS VL: DIQMTQSPSSLSASVGDRVTITCRASQSILTYVNWYQQKPGKAPKLVIYAVTSRASGVPSRFSGSGSGTDFTLTISSLQPEDFATYYCQQSYETPLTFGGGTKVEIK",0.171 OD
3,"373_C06 (antibody, V domains shown) VH: EVQLLESGGGLVQPGGSLRLSCAASGFTFSSYSMNWVRQAPGKGLEWVAGINYNGGYTGYADSVKGRFTISRDNSKNTLYLQMNSLRAEDTAVYYCARSANWHDTALDYWGQGTLVTVSS VL: DIQMTQSPSSLSASVGDRVTITCRASQSIVSYVNWYQQKPGKAPKLVIYAATSRASGVPSRFSGSGSGTDFTLTISSLQPEDFATYYCQQSYDTPLTFGGGTKVEIK",0.163 OD
4,"373_C08 (antibody, V domains shown) VH: EVQLLESGGGLVQPGGSLRLSCAASGFTFSSYSMNWVRQAPGKGLEWVANINYNGGYTSYADSVKGRFTISRDNSKNTLYLQMNSLRAEDTAVYYCARSANWHDTALDYWGQGTLVTVSS VL: DIQMTQSPSSLSASVGDRVTITCRASQSIISYLNWYQQKPGKAPKLLIYAASSLQSGVPSRFSGSGSGTDFTLTISSLQPEDFATYYCQQSYNNPLTFGGGTKVEIK",0.16 OD
5,"373_C04 (antibody, V domains shown) VH: EVQLLESGGGLVQPGGSLRLSCAASGFTFSSYSMNWVRQAPGKGLEWVANINYNSGYTGYADSVKGRFTISRDNSKNTLYLQMNSLRAEDTAVYYCARSANWHDTALDYWGQGTLVTVSS VL: DIQMTQSPSSLSASVGDRVTITCRASQSIISYVNWYQQKPGKAPKLVIYAVTSRASGVPSRFSGSGSGTDFTLTISSLQPEDFATYYCQQSYNSPLTFGGGTKVEIK",0.157 OD
6,"373_D05 (antibody, V domains shown) VH: EVQLLESGGGLVQPGGSLRLSCAASGFTFSSYSMNWVRQAPGKGLEWVSGINYNSGYKGYADSVKGRFTISRDNSKNTLYLQMNSLRAEDTAVYYCARSANWHDTALDYWGQGTLVTVSS VL: DIQMTQSPSSLSASVGDRVTITCRASQSILSYLNWYQQKPGKAPKLVIYAATSRASGVPSRFSGSGSGTDFTLTISSLQPEDFATYYCQQSYDSPLTFGGGTKVEIK",0.179 OD
7,"373_D01 (antibody, V domains shown) VH: EVQLLESGGGLVQPGGSLRLSCAASGFTFDSYSMNWVRQAPGKGLEWVSGINYNSGYKSYADSVKGRFTISRDNSKNTLYLQMNSLRAEDTAVYYCARSANWHDTHLDYWGQGTLVTVSS VL: DIQMTQSPSSLSASVGDRVTITCRASQSILSYVNWYQQKPGKAPKLVIYAATSRASGVPSRFSGSGSGTDFTLTISSLQPEDFATYYCQQSYDSPLTFGGGTKVEIK",0.174 OD
8,"373_D04 (antibody, V domains shown) VH: EVQLLESGGGLVQPGGSLRLSCAASGFTFDSYSMNWVRQAPGKGLEWVSGINYNSGYKGYADSVKGRFTISRDNSKNTLYLQMNSLRAEDTAVYYCARSANWHDTALDYWGQGTLVTVSS VL: DIQMTQSPSSLSASVGDRVTITCRASQSILSYLNWYQQKPGKAPKLLIYAATSRHSGVPSRFSGSGSGTDFTLTISSLQPEDFATYYCQQSYDSPLTFGGGTKVEIK",0.168 OD
9,"373_B10 (antibody, V domains shown) VH: EVQLLESGGGLVQPGGSLRLSCAASGFTFDSYGMNWVRQAPGKGLEWVSNINYNGGYTSYADSVKGRFTISRDNSKNTLYLQMNSLRAEDTAVYYCARSANWHDTALDYWGQGTLVTVSS VL: DIQMTQSPSSLSASVGDRVTITCRASQSILSYLNWYQQKPGKAPKLLIYAATSRASGVPSRFSGSGSGTDFTLTISSLQPEDFATYYCQQSYDLPLTFGGGTKVEIK",0.174 OD
10,"373_B12 (antibody, V domains shown) VH: EVQLLESGGGLVQPGGSLRLSCAASGFTFDSYGMNWVRQAPGKGLEWVSSINYNSGYTSYADSVKGRFTISRDNSKNTLYLQMNSLRAEDTAVYYCARSANWHDTALDYWGQGTLVTVSS VL: DIQMTQSPSSLSASVGDRVTITCRASQSIVSYVNWYQQKPGKAPKLLIYAATSRASGVPSRFSGSGSGTDFTLTISSLQPEDFATYYCQQSYDSPLTFGGGTKVEIK",0.172 OD
